“And” between values parts separate entries of the source, which are not always exact repeats. Identical values can stand only once.
Legend:
[1] = substrate: CC(=O)N[C@@H](CCC(=O)O)C(=O)N[C@@H](C)C(=O)N[C@@H](CC(C)C)C(=O)N1CCC[C@H]1C(=O)N[C@@H](CCCCN)C(=O)N[C@@H](CCCCNC(=O)CCCCCCCCCCNC(=O)c1ccccc1N)C(=O)N[C@@H](Cc1ccc(O)c([N+](=O)[O-])c1)C(=O)NCC(=O)NCC(N)=O; assay: HPLC based activity assay; format: biochemical, human; conditions: other: HPLC; Sirt2; pH 7.8; 37.0 °C
Description: (§1) For the determination of kinetic constants for all sirtuin mediated reactions solutions containing 20 mM TRIS/HCl pH 7.8, 150 mM NaCl, 5 mM MgCl2 (assay-buffer), 500 μM NAD^+ and varying substrate concentrations (0.5–100 μM) were used. Deacylation was started by adding human sirtuin to reach a final concentration of 0.01–0.5 μM. Enzyme-catalyzed reaction was stopped using TFA (1% final concentration) after 1 min to 180 min of incubation at 37 °C depending on substrate reactivity. The cleavage rate of the different TNFα peptide derivatives was analyzed using analytical reversed phase HPLC. 40 to 80 μl of compounds or reaction solutions were injected and separated using a linear gradient from 5% to 95% solvent B within 6min. The product and substrate peaks were quantified using absorbance at 220 nm or 365 nm (absorption of 3-Nitrotyrosyl moiety). The peak areas were integrated and converted to initial velocity rates calculated from the ratio of product area to total peak area. Linear regression of conversions plotted against time yielded reaction rates in μM/min (relative conversion below 20% of substrate). Non-linear regression according to Michaelis-Menten of the reaction rates at different substrate concentrations yielded KM- and kcat-values using the program SigmaPlot 8 (Systat Software, San Jose, USA). All measurements were done in duplicates.
(§2) The reactions were performed with 0.1- 0.5 µM sirtuin, 500 µM NAD^+ and 50µM 13/16. All reactions were done in duplicates (n=2).

[2] = substrate: CC(=O)N[C@@H](CCC(=O)O)C(=O)N[C@@H](C)C(=O)N[C@@H](CC(C)C)C(=O)N1CCC[C@H]1C(=O)N[C@@H](CCCCN)C(=O)N[C@@H](CCCCNC(=O)CCCCCNC(=O)c1ccccc1N)C(=O)N[C@@H](Cc1ccc(O)c([N+](=O)[O-])c1)C(=O)NCC(=O)NCC(N)=O; assay: HPLC based activity assay; format: biochemical, human; conditions: other: HPLC; Sirt2; pH 7.8; 37.0 °C
Description: as §1, §2

[3] = substrate: CCCCCCCCCCCCCC(=O)NCCCC[C@H](NC(=O)[C@H](CCCCN)NC(=O)[C@@H]1CCCN1C(=O)[C@H](CC(C)C)NC(=O)[C@H](C)NC(=O)[C@H](CCC(=O)O)NC(C)=O)C(=O)N[C@H](C(=O)NCC(=O)NCC(N)=O)[C@@H](C)O; assay: HPLC based activity assay; format: biochemical, human; conditions: other: HPLC; Sirt2; pH 7.8; 37.0 °C
Description: as §1, §2

[4] = substrate: CC(=O)N[C@@H](CCC(=O)O)C(=O)N[C@@H](C)C(=O)N[C@@H](CC(C)C)C(=O)N1CCC[C@H]1C(=O)N[C@@H](CCCCN)C(=O)N[C@@H](CCCCNC(=O)CCCCCNC(=O)CCCCCNC(=O)c1ccccc1N)C(=O)N[C@@H](Cc1ccc(O)c([N+](=O)[O-])c1)C(=O)NCC(=O)NCC(N)=O; assay: purified protein, by the assay type; conditions: other: Sirt2; measured using MTP fluorescence reader (footnote b); 37.0 °C
Description: (§3) Each reaction mixture contained assay-buffer, 0.5 mM NAD^+ and various peptide concentrations (0.1–100 μM) and was preincubated for 5 minutes at 37 °C. The reaction was started by adding human sirtuin (0.1–0.5 μM) and observed for 5–10 minutes. Product formation could be monitored by increase of relative fluorescence. This signal was converted into product concentration via calibration lines. The slope of the linear regression of product formation against time yielded the reaction velocity rates in μM/s. KM and kcat were obtained by non-linear regression according to Michaelis-Menten. All measurements were done in duplicates. For determination of reaction velocity rates in μM/s calibration lines were necessary. […] The reaction mixture was analyzed with HPLC, to control if the entire peptide substrate was turned to product.
(§4) The reactions (total volume 100 μl) were measured in black low-binding 96-well microtiter plates (NUNC). Assay-buffer, 500 μM NAD^+ and 0.07–200 μM peptide substrate were pre-incubated at 37 °C for 5 min. The reaction was started by adding human sirtuin (0.01–0.5 μM). The signals were converted into product concentration via calibration lines and the resulting data were evaluated as described above (single fluorescence measurement). […] All measurements were done in duplicates. The reaction mixture for the calibration lines was prepared as described for the single fluorescence measurements.

[5] = substrate: CC(=O)N[C@@H](CCC(=O)O)C(=O)N[C@@H](C)C(=O)N[C@@H](CC(C)C)C(=O)N1CCC[C@H]1C(=O)N[C@@H](CCCCN)C(=O)N[C@@H](CCCCNC(=O)CCCCCCCCCCNC(=O)c1ccccc1N)C(=O)N[C@@H](Cc1ccc(O)c([N+](=O)[O-])c1)C(=O)NCC(=O)NCC(N)=O; assay: purified protein, by the assay type; conditions: other: Sirt2, measured using fluorescence spectrophotometer (footnote a), 0.5 mM NAD+, 37 °C
Description: as §3, §4

[6] = substrate: CC(=O)N[C@@H](CCC(=O)O)C(=O)N[C@@H](C)C(=O)N[C@@H](CC(C)C)C(=O)N1CCC[C@H]1C(=O)N[C@@H](CCCCN)C(=O)N[C@@H](CCCCNC(=O)CCCCCCCNC(=O)c1ccccc1N)C(=O)N[C@@H](Cc1ccc(O)c([N+](=O)[O-])c1)C(=O)NCC(=O)NCC(N)=O; assay: purified protein, by the assay type; conditions: other: Sirt2; measured using MTP fluorescence reader (footnote b); 37.0 °C
Description: as §3, §4

[7] = substrate: CC(=O)N[C@@H](CCC(=O)O)C(=O)N[C@@H](C)C(=O)N[C@@H](CC(C)C)C(=O)N1CCC[C@H]1C(=O)N[C@@H](CCCCN)C(=O)N[C@@H](CCCCNC(=O)CCCCCCCCCCNC(=O)CN1C(=O)c2cccc3c(N(C)C)ccc(c23)C1=O)C(=O)N[C@@H](Cc1ccc(O)c([N+](=O)[O-])c1)C(=O)NCC(=O)NCC(N)=O; assay: purified protein, by the assay type; conditions: other: MTPR (microtiter plate reader); Sirt2; 37.0 °C
Description: as §3, §4

[8] = substrate: CC(=O)N[C@@H](CCC(=O)O)C(=O)N[C@@H](C)C(=O)N[C@@H](CC(C)C)C(=O)N1CCC[C@H]1C(=O)N[C@@H](CCCCN)C(=O)N[C@@H](CCCCNC(=O)CCCCCNC(=O)c1ccccc1N)C(=O)N[C@@H](Cc1ccc(O)c([N+](=O)[O-])c1)C(=O)NCC(=O)NCC(N)=O; assay: purified protein, by the assay type; conditions: other: Sirt2, measured using fluorescence spectrophotometer (footnote a), 0.5 mM NAD+, 37 °C
Description: as §3, §4

[9] = substrate: COc1ccc2c(C[C@H](NC(=O)[C@H](CCCCNC(=O)CCCCCCCCCCNC(=O)c3cc([N+](=O)[O-])ccc3N)NC(=O)[C@H](CCCCN)NC(=O)[C@@H]3CCCN3C(=O)[C@H](CC(C)C)NC(=O)[C@H](C)NC(=O)[C@H](CCC(=O)O)NC(C)=O)C(=O)NCC(=O)NCC(N)=O)cc(=O)oc2c1; assay: purified protein, by the assay type; conditions: other: MTPR (microtiter plate reader); Sirt2; 37.0 °C
Description: as §3, §4

B1: Sirt2 (Homo sapiens) (protein)
chain: MAEPDPSHPLETQAGKVQEAQDSDSDSEGGAAGGEADMDFLRNLFSQTLSLGSQKERLLDELTLEGVARYMQSERCRRVICLVGAGISTSAGIPDFRSPSTGLYDNLEKYHLPYPEAIFEISYFKKHPEPFFALAKELYPGQFKPTICHYFMRLLKDKGLLLRCYTQNIDTLERIAGLEQEDLVEAHGTFYTSHCVSASCRHEYPLSWMKEKIFSEVTPKCEDCQSLVKPDIVFFGESLPARFFSCMQSDFLKVDLLLVMGTSLQVQPFASLISKAPLSTPRLLINKEKAGQSDPFLGMIMGLGGGMDFDSKKAYRDVAWLGECDQGCLALAELLGWKKELEDLVRREHASIDAQSGAGVPNPSTSASPKKSPPPAKDEARTTEREKPQ
notes: made in house
- Km [1]: 0.3 ± 0.04 µM
- kcat [1]: 3.9∙10^-2 ± 0.1∙10^-2 s^-1
- kcat/Km [1]: 1.18∙10^5 M^-1s^-1
- Km [2]: 26.8 ± 2.7 µM
- kcat [2]: 3.9∙10^-3 ± 0.2∙10^-3 s^-1
- kcat/Km [2]: 1.46∙10^2 M^-1s^-1
- Km [3]: 0.7 ± 0.1 µM
- kcat [3]: 3.7∙10^-2 ± 0.1∙10^-2 s^-1
- kcat/Km [3]: 5.30∙10^4 M^-1s^-1
- Km [4]: 15.3 ± 2.7 µM
- kcat/Km [4]: 156 M⁻¹ s⁻¹
- Km [5]: 0.1 ± 0.02 µM and 0.12 ± 0.02 µM
- Km [6]: 1.2 ± 0.1 µM
- kcat/Km [6]: 38600 M⁻¹ s⁻¹
- Km [7]: 7.5 ± 1.5 µM
- kcat [7]: 2.6∙10^-3 ± 0.2∙10^-3 s^-1
- kcat/Km [7]: 3.42∙10^2 M^-1s^-1
- Km [8]: 17.7 ± 1.5 µM
- Km [9]: 0.8 ± 0.1 µM
- kcat [9]: 9.6∙10^-2 ± 0.5∙10^-2 s^-1
- kcat/Km [9]: 1.25∙10^5 M^-1s^-1

From paper PMC4778124, “A continuous sirtuin activity assay without any coupling to enzymatic or chemical reactions” (Scientific Reports, 2016)
